Data reported in patent publication US20150344570A1 (published 2015).

Each binder was assayed against T1, FcγRIa (human, UniProt P12314 16-292) (assay: SPR (Biacore), antibody captured on antigen-peptide chip, FcγRIa as analyte; binding activity relative to control GpH7-A5/GpH7-B3/GpL16-k0 (HeCon Ab) x100).
T1 construct: extracellular domain; Soluble extracellular domain with C-terminal His tag, expressed in FreeStyle293 cells; analyte in Biacore; also called FcgRI; CD64; not shown: His tag attached to the C terminus
T1 sequence (P12314 16-292): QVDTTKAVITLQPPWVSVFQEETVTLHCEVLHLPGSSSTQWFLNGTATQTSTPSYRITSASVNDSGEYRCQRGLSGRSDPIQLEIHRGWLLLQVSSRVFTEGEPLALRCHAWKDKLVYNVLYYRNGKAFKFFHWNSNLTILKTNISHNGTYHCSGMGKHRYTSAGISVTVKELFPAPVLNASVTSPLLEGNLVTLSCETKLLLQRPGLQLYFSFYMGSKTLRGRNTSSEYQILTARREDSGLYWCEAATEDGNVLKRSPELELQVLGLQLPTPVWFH
Method: Analysis of interaction between objective antibody and the FcγR was carried out using Biacore T100 (GE Healthcare). HBS-EP+ (GE Healthcare) was used as the running buffer, and the measurement temperature was set to 25° C. Chips produced by immobilizing the antigen peptide by the amine coupling method to a Series S Sencor Chip CM5 (GE Healthcare), or alternatively, chips produced by allowing preliminarily biotinylated antigen peptides to interact with and immobilize onto a Series S Sensor Chip SA (certified) (GE Healthcare) were used. Antibodies of interest were captured onto an antigen peptide-immobilized chip, and allowed to interact to each FcγR diluted with running buffer. To regenerate and repeatedly use the chip, the antibodies captured on the chip were washed off by reacting 10 mM glycine-HCl, pH 1.5.

He/Con_1a | Binder
106 % of control (=100) | GpH7-A5/GpH7-B3 variant T335_20W/GpL16-k0 (heterodimerized antibody, He Ab) (antibody, human IgG1, kappa, Anti-glypican-3 IgG1; alteration only in the GpH7-B3 (K439E) chain; other H chain is GpH7-A5 (D356K/H435R)) heavy 1: not shown heavy 2: not shown light: DIVMTQSPLSLPVTPGEPASISCQASESLVHSNRNTYLHWYLQKPGQSPQLLIYKVSNRFSGVPDRFSGSGSGTDFTLKISRVEAEDVGVYYCSQNTHVPPTFGQGTKVEIERTVAAPSVFIFPPSDEQLKSGTASVVCLLNNFYPREAKVQWKVDNALQSGNSQESVTEQDSKDSTYSLSSTLTLSKADYEKHKVYACEVTHQGLSSPVTKSFNRGEC
106 % of control (=100) | GpH7-A5/GpH7-B3 variant Y296_18N/GpL16-k0 (heterodimerized antibody, He Ab) (antibody, human IgG1, kappa, Anti-glypican-3 IgG1; alteration only in the GpH7-B3 (K439E) chain; other H chain is GpH7-A5 (D356K/H435R)) heavy 1: not shown heavy 2: not shown light: DIVMTQSPLSLPVTPGEPASISCQASESLVHSNRNTYLHWYLQKPGQSPQLLIYKVSNRFSGVPDRFSGSGSGTDFTLKISRVEAEDVGVYYCSQNTHVPPTFGQGTKVEIERTVAAPSVFIFPPSDEQLKSGTASVVCLLNNFYPREAKVQWKVDNALQSGNSQESVTEQDSKDSTYSLSSTLTLSKADYEKHKVYACEVTHQGLSSPVTKSFNRGEC
112 % of control (=100) | GpH7-A5/GpH7-B3 variant Y300_06M/GpL16-k0 (heterodimerized antibody, He Ab) (antibody, human IgG1, kappa, Anti-glypican-3 IgG1; alteration only in the GpH7-B3 (K439E) chain; other H chain is GpH7-A5 (D356K/H435R)) heavy 1: not shown heavy 2: not shown light: DIVMTQSPLSLPVTPGEPASISCQASESLVHSNRNTYLHWYLQKPGQSPQLLIYKVSNRFSGVPDRFSGSGSGTDFTLKISRVEAEDVGVYYCSQNTHVPPTFGQGTKVEIERTVAAPSVFIFPPSDEQLKSGTASVVCLLNNFYPREAKVQWKVDNALQSGNSQESVTEQDSKDSTYSLSSTLTLSKADYEKHKVYACEVTHQGLSSPVTKSFNRGEC
112 % of control (=100) | GpH7-A5/GpH7-B3 variant Y300_14T/GpL16-k0 (heterodimerized antibody, He Ab) (antibody, human IgG1, kappa, Anti-glypican-3 IgG1; alteration only in the GpH7-B3 (K439E) chain; other H chain is GpH7-A5 (D356K/H435R)) heavy 1: not shown heavy 2: not shown light: DIVMTQSPLSLPVTPGEPASISCQASESLVHSNRNTYLHWYLQKPGQSPQLLIYKVSNRFSGVPDRFSGSGSGTDFTLKISRVEAEDVGVYYCSQNTHVPPTFGQGTKVEIERTVAAPSVFIFPPSDEQLKSGTASVVCLLNNFYPREAKVQWKVDNALQSGNSQESVTEQDSKDSTYSLSSTLTLSKADYEKHKVYACEVTHQGLSSPVTKSFNRGEC
117 % of control (=100) | GpH7-A5/GpH7-B3 variant Y300_03V/GpL16-k0 (heterodimerized antibody, He Ab) (antibody, human IgG1, kappa, Anti-glypican-3 IgG1; alteration only in the GpH7-B3 (K439E) chain; other H chain is GpH7-A5 (D356K/H435R)) heavy 1: not shown heavy 2: not shown light: DIVMTQSPLSLPVTPGEPASISCQASESLVHSNRNTYLHWYLQKPGQSPQLLIYKVSNRFSGVPDRFSGSGSGTDFTLKISRVEAEDVGVYYCSQNTHVPPTFGQGTKVEIERTVAAPSVFIFPPSDEQLKSGTASVVCLLNNFYPREAKVQWKVDNALQSGNSQESVTEQDSKDSTYSLSSTLTLSKADYEKHKVYACEVTHQGLSSPVTKSFNRGEC
112 % of control (=100) | GpH7-A5/GpH7-B3 variant Y296_19Q/GpL16-k0 (heterodimerized antibody, He Ab) (antibody, human IgG1, kappa, Anti-glypican-3 IgG1; alteration only in the GpH7-B3 (K439E) chain; other H chain is GpH7-A5 (D356K/H435R)) heavy 1: not shown heavy 2: not shown light: DIVMTQSPLSLPVTPGEPASISCQASESLVHSNRNTYLHWYLQKPGQSPQLLIYKVSNRFSGVPDRFSGSGSGTDFTLKISRVEAEDVGVYYCSQNTHVPPTFGQGTKVEIERTVAAPSVFIFPPSDEQLKSGTASVVCLLNNFYPREAKVQWKVDNALQSGNSQESVTEQDSKDSTYSLSSTLTLSKADYEKHKVYACEVTHQGLSSPVTKSFNRGEC
104 % of control (=100) | GpH7-A5/GpH7-B3 variant Y296_06M/GpL16-k0 (heterodimerized antibody, He Ab) (antibody, human IgG1, kappa, Anti-glypican-3 IgG1; alteration only in the GpH7-B3 (K439E) chain; other H chain is GpH7-A5 (D356K/H435R)) heavy 1: not shown heavy 2: not shown light: DIVMTQSPLSLPVTPGEPASISCQASESLVHSNRNTYLHWYLQKPGQSPQLLIYKVSNRFSGVPDRFSGSGSGTDFTLKISRVEAEDVGVYYCSQNTHVPPTFGQGTKVEIERTVAAPSVFIFPPSDEQLKSGTASVVCLLNNFYPREAKVQWKVDNALQSGNSQESVTEQDSKDSTYSLSSTLTLSKADYEKHKVYACEVTHQGLSSPVTKSFNRGEC
111 % of control (=100) | GpH7-A5/GpH7-B3 variant Y296_20W/GpL16-k0 (heterodimerized antibody, He Ab) (antibody, human IgG1, kappa, Anti-glypican-3 IgG1; alteration only in the GpH7-B3 (K439E) chain; other H chain is GpH7-A5 (D356K/H435R)) heavy 1: not shown heavy 2: not shown light: DIVMTQSPLSLPVTPGEPASISCQASESLVHSNRNTYLHWYLQKPGQSPQLLIYKVSNRFSGVPDRFSGSGSGTDFTLKISRVEAEDVGVYYCSQNTHVPPTFGQGTKVEIERTVAAPSVFIFPPSDEQLKSGTASVVCLLNNFYPREAKVQWKVDNALQSGNSQESVTEQDSKDSTYSLSSTLTLSKADYEKHKVYACEVTHQGLSSPVTKSFNRGEC
105 % of control (=100) | GpH7-A5/GpH7-B3 variant Y296_11K/GpL16-k0 (heterodimerized antibody, He Ab) (antibody, human IgG1, kappa, Anti-glypican-3 IgG1; alteration only in the GpH7-B3 (K439E) chain; other H chain is GpH7-A5 (D356K/H435R)) heavy 1: not shown heavy 2: not shown light: DIVMTQSPLSLPVTPGEPASISCQASESLVHSNRNTYLHWYLQKPGQSPQLLIYKVSNRFSGVPDRFSGSGSGTDFTLKISRVEAEDVGVYYCSQNTHVPPTFGQGTKVEIERTVAAPSVFIFPPSDEQLKSGTASVVCLLNNFYPREAKVQWKVDNALQSGNSQESVTEQDSKDSTYSLSSTLTLSKADYEKHKVYACEVTHQGLSSPVTKSFNRGEC
112 % of control (=100) | GpH7-A5/GpH7-B3 variant Y300_09D/GpL16-k0 (heterodimerized antibody, He Ab) (antibody, human IgG1, kappa, Anti-glypican-3 IgG1; alteration only in the GpH7-B3 (K439E) chain; other H chain is GpH7-A5 (D356K/H435R)) heavy 1: not shown heavy 2: not shown light: DIVMTQSPLSLPVTPGEPASISCQASESLVHSNRNTYLHWYLQKPGQSPQLLIYKVSNRFSGVPDRFSGSGSGTDFTLKISRVEAEDVGVYYCSQNTHVPPTFGQGTKVEIERTVAAPSVFIFPPSDEQLKSGTASVVCLLNNFYPREAKVQWKVDNALQSGNSQESVTEQDSKDSTYSLSSTLTLSKADYEKHKVYACEVTHQGLSSPVTKSFNRGEC
